± gives the standard deviation of the averaged measurements.
Test system: ATP
Test: switch fluorescence ratio, 500 uM ATP over buffer (Cy3 cluster intensity, sum of 5 cycles each) (fold (ratio)); higher = stronger signal-on switching upon ATP binding; sequences stand for … in TCGTCGGCAGCGTCAGATGTGTATAAGAGACAGTTTTTTTTTTTTTTTTTTTTTTTTT…TC
Conditions: aptamer strand: ATP DNA aptamer (quencher-CACCTGGGGGAGTATTGCGGAGGAAGG + anchor), 100 nM annealed; ATP concentration: 500 uM
How it was run: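 The fluorescence ratio divides summed target-cycle Cy3 intensity by summed buffer-cycle Cy3 intensity for each cluster and is averaged per switch-domain sequence. Cy3-labelled switching-strand clusters on a modified Illumina MiSeq flow-cell were annealed to 100 nM quencher-labelled ATP aptamer, then imaged in selection buffer and again after 15 min with 500 uM ATP at 22 °C. Five such cycles were run, with NaOH stripping and re-annealing between them, and clusters outside 100-1000 RFU were excluded.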
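Further: ATP exposure 15 min at 22 °C before imaging.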

Sequence | switch fluorescence ratio
GATATTTTAG | 1.009 ± 0.0087
GATATTTTGT | 0.997 ± 0.031
GATCAACTGT | 1 ± 0.032
GATCAAGGCA | 1.017 ± 0.0012
GATCACAGGG | 1.13 ± 0.01
GATCATAGTT | 0.995 ± 0.013
GATCATCAGG | 1 ± 0.012
GATCATGGGA | 1.03 ± 0.093
GATCGAACGT | 1.017 ± 0.0085
GATCGCCCCG | 1 ± 0.02
GATCGGAGCG | 1.04 ± 0.047
GATCGGAGGG | 1.01 ± 0.027
GATCGGGCCG | 0.975 ± 0.052
GATCGGGGTA | 1.014 ± 0.0071
GATCGTGAGT | 1 ± 0.015
GATCTAAAAC | 0.9594 ± 0.0053
GATCTAGTTA | 0.996 ± 0.054
GATCTATTGT | 0.9619 ± 0.0088
GATCTCAGTT | 1.02 ± 0.036
GATCTCGTGG | 1.01 ± 0.056
GATCTGAAGT | 1.02 ± 0.012
GATCTGGGTT | 0.994 ± 0.031
GATCTTAACG | 0.9912 ± 0.0096

Sequence | switch fluorescence ratio
GATCTTTCTG | 0.994 ± 0.041
GATGAAGCCT | 1.17 ± 0.035
GATGAAGGTT | 0.992 ± 0.027
GATGAATTAG | 1.005 ± 0.0082
GATGACACGA | 1.033 ± 0.01
GATGACAGAG | 0.974 ± 0.047
GATGACCTCA | 0.998 ± 0.093
GATGAGGTGT | 1.01 ± 0.036
GATGATGTGT | 1.02 ± 0.031
GATGATGTTC | 0.9439 ± 0.0072
GATGCAAGGG | 1.83 ± 0.14
GATGCAGTAT | 1.12 ± 0.044
GATGCGGCTA | 1.02 ± 0.018
GATGCTAGAC | 3 ± 0.11
GATGCTGTGG | 0.958 ± 0.003
GATGCTTCTG | 1.02 ± 0.032
GATGGAACTA | 1.01 ± 0.034
GATGGAACTT | 1.02 ± 0.053
GATGGAGTTC | 0.983 ± 0.029
GATGGAGTTT | 1.03 ± 0.011
GATGGATTTG | 1.02 ± 0.033
GATGGCAGCG | 1.05 ± 0.045
GATGGCATAA | 1.01 ± 0.025

Sequence | switch fluorescence ratio
GATGGCATCG | 1.02 ± 0.014
GATGGCCATT | 1.02 ± 0.018
GATGGCCGTG | 0.978 ± 0.018
GATGGCGGGA | 1.02 ± 0.025
GATGGGAAAA | 1.01 ± 0.021
GATGGGCTAG | 0.997 ± 0.025
GATGGGGGTA | 0.973 ± 0.033
GATGGGTTTG | 0.991 ± 0.028
GATGGTAATT | 1 ± 0.025
GATGGTGTGC | 1.15 ± 0.29
GATGGTTAGT | 0.974 ± 0.036
GATGTAAACC | 1.01 ± 0.02
GATGTAATCT | 1.02 ± 0.025
GATGTAATTT | 1.03 ± 0.023
GATGTACCTC | 1.05 ± 0.0046
GATGTAGCTA | 1.033 ± 0.00083
GATGTAGGTG | 1.007 ± 0.0071
GATGTAGTAG | 1.01 ± 0.042
GATGTCGAGA | 1.019 ± 0.0051
GATGTCGCGC | 1.01 ± 0.028
GATGTCTGCT | 1.019 ± 0.0098
GATGTGATTT | 1.08 ± 0.078
GATGTGCTTG | 1.01 ± 0.013

Sequence | switch fluorescence ratio
GATGTGGGGT | 0.987 ± 0.012
GATGTGGTGT | 0.984 ± 0.081
GATGTGTGGG | 0.9843 ± 0.0015
GATGTGTTCT | 0.988 ± 0.042
GATGTTAGGA | 0.978 ± 0.034
GATGTTATAA | 1 ± 0.029
GATGTTCCGT | 0.9958 ± 0.0049
GATGTTGCTT | 1.02 ± 0.055
GATTAAAGGT | 1.01 ± 0.025
GATTAACGCT | 1.03 ± 0.026
GATTAACGTT | 0.971 ± 0.036
GATTAAGGAG | 0.995 ± 0.011
GATTAATGTT | 1 ± 0.022
GATTACAGCG | 1.01 ± 0.02
GATTACGGGG | 1.006 ± 0.0014
GATTAGATGT | 0.9917 ± 0.0067
GATTAGGGGT | 0.99655 ± 0.00059
GATTATATCT | 0.981 ± 0.033
GATTATCAGA | 0.988 ± 0.027
GATTATCTCG | 0.99 ± 0.049
GATTATGAGT | 1.02 ± 0.018
GATTATGGTT | 0.9891 ± 0.003
GATTATTGGT | 0.987 ± 0.031

Sequence | switch fluorescence ratio
GATTATTTGT | 1.03 ± 0.022
GATTCAAACG | 1.006 ± 0.0073
GATTCACGA | 0.984 ± 0.015
GATTCAGGGG | 1.04 ± 0.026
GATTCAGTAC | 1.61 ± 0.056
GATTCCGTGT | 1.01 ± 0.031
GATTCGGCGT | 0.9867 ± 0.0067
GATTCGGCTA | 1.02 ± 0.021
GATTCTCAAG | 0.9746 ± 0.0056
GATTCTTTAC | 1.03 ± 0.029
GATTGAGACT | 1.01 ± 0.026
GATTGAGCTG | 1.02 ± 0.043
GATTGATAGG | 0.99961 ± 0.00019
GATTGCAAGG | 1.02 ± 0.02
GATTGCACTT | 1.02 ± 0.031
GATTGCAGGA | 0.9989 ± 0.0039
GATTGCATGC | 1.032 ± 0.0014
GATTGGCTGT | 0.966 ± 0.029
GATTGGGGCA | 1.02 ± 0.046
GATTGGGGCG | 1.02 ± 0.015
GATTGGTAGG | 0.981 ± 0.017
GATTGTAAGA | 1.16 ± 0.2
GATTGTAGGC | 1.03 ± 0.011

Sequence | switch fluorescence ratio
GATTGTCCGT | 0.981 ± 0.031
GATTTAAAAT | 1.013 ± 0.0083
GATTTAAAGG | 1.04 ± 0.025
GATTTAGAAT | 1.01 ± 0.012
GATTTAGCTG | 1 ± 0.035
GATTTAGTAA | 0.9759 ± 0.0069
GATTTATACT | 1.06 ± 0.014
GATTTATTCG | 0.983 ± 0.014
GATTTATTTG | 0.989 ± 0.048
GATTTCGATG | 1.01 ± 0.013
GATTTCGGGA | 1.01 ± 0.04
GATTTCGTAT | 0.98 ± 0.014
GATTTCTTAT | 0.999 ± 0.052
GATTTGGGTT | 1.02 ± 0.041
GATTTGTTGG | 0.9815 ± 0.0055
GATTTGTTTG | 0.985 ± 0.026
GATTTTAGTC | 0.993 ± 0.04
GATTTTCAGT | 0.975 ± 0.013
GATTTTCCAT | 1.03 ± 0.021
GATTTTGACG | 1.04 ± 0.067
GATTTTGGAT | 0.994 ± 0.012
GATTTTGGCG | 1.01 ± 0.046
GATTTTTAGG | 0.964 ± 0.015

Sequence | switch fluorescence ratio
GATTTTTATC | 1.023 ± 0.0031
GATTTTTGGC | 0.9945 ± 0.0087
GATTTTTTAC | 0.995 ± 0.037
GCAAAAAATT | 1.01 ± 0.025
GCAAAAAGGC | 1.03 ± 0.015
GCAAAACGGG | 1.02 ± 0.069
GCAAAATTGG | 1.04 ± 0.02
GCAAACGTTA | 1.07 ± 0.043
GCAAAGGGCT | 1 ± 0.035
GCAAATGCGT | 1.03 ± 0.059
GCAACCACCG | 1.137 ± 0.0038
GCAAGAACAG | 1.04 ± 0.036
GCAAGAGATA | 1.02 ± 0.017
GCAAGGAGCG | 1.03 ± 0.039
GCAAGGAGGA | 0.996 ± 0.014
GCAAGTGCAC | 0.978 ± 0.04
GCAAGTTACG | 1.14 ± 0.041
GCAAGTTAGA | 1 ± 0.017
GCAAGTTGGG | 1.01 ± 0.028

— the supplement of paper PMC10126150
